Columns and labels:
Test in all cases: cell-based or functional assay
[1] = molecular target: HA protein of influenza B virus B/Hong Kong/330/2001 (Victoria lineage) (Influenza B virus B/Hong Kong/330/2001)
[2] = molecular target: HA protein of influenza B virus B/Brisbane/60/2008 (Victoria lineage) (Influenza B virus B/Brisbane/60/2008)
[3] = molecular target: HA protein of influenza B virus B/Harbin/7/1994 (Yamagata lineage) (Influenza B virus B/Harbin/7/1994)
[4] = molecular target: HA protein of influenza A virus A/Brisbane/10/2007 (seasonal H3N2) (Influenza A virus A/Brisbane/10/2007 (H3N2))
[5] = molecular target: HA protein of B/Xiamen/1346/2008 (Victoria lineage) (Influenza B virus B/Xiamen/1346/2008 (Victoria lineage)) (UniProt P22092)
[6] = molecular target: HA protein of influenza B virus B/Xiamen/3043/2006 (Victoria lineage) (Influenza B virus B/Xiamen/3043/2006)
[7] = molecular target: HA protein of influenza B virus B/Lee/1940 (Influenza B virus B/Lee/1940) (UniProt P03460)
[8] = molecular target: HA protein of influenza B virus B/Brisbane/33/2008 (Victoria lineage) (Influenza B virus B/Brisbane/33/2008)
[9] = molecular target: HA protein of influenza B virus B/Xiamen/N639/2010 (Victoria lineage) (Influenza B virus B/Xiamen/N639/2010)
[10] = molecular target: HA protein of influenza B virus B/Xiamen/1147/2008 (Yamagata lineage) (Influenza B virus B/Xiamen/1147/2008)
[11] = molecular target: HA protein of influenza B virus B/Xiamen/N678/2012 (Victoria lineage) (Influenza B virus B/Xiamen/N678/2012)
[12] = molecular target: HA protein of influenza B virus B/Xiamen/756/2007 (Yamagata lineage) (Influenza B virus B/Xiamen/756/2007)
[13] = molecular target: HA protein of influenza B virus B/Xiamen/165/2007 (Victoria lineage) (Influenza B virus B/Xiamen/165/2007)
[14] = molecular target: HA protein of influenza B virus B/Florida/4/2006 (Yamagata lineage) (Influenza B virus B/Florida/4/2006)
[15] = molecular target: HA protein of influenza B virus B/Xiamen/891/2006 (Yamagata lineage) (Influenza B virus B/Xiamen/891/2006)
[16] = molecular target: HA protein of influenza B virus B/Great Lakes/1739/1954 (Influenza B virus B/Great Lakes/1739/1954)
[17] = molecular target: HA protein of influenza B virus B/Malaysia/2506/2004 (Victoria lineage) (Influenza B virus B/Malaysia/2506/2004)
[18] = molecular target: HA protein of influenza B virus B/Maryland/1/1959 (Influenza B virus B/Maryland/1/1959) (UniProt P03461)
[19] = molecular target: HA protein of influenza B virus B/Xiamen/N697/2012 (Yamagata lineage) (Influenza B virus B/Xiamen/N697/2012)
[20] = molecular target: HA protein of influenza B virus B/Taiwan/2/1962 (Influenza B virus B/Taiwan/2/1962)
[21] = molecular target: HA protein of B/Singapore/3/1964 (Influenza B virus B/Singapore/3/1964) (UniProt P03464)

B1: monoclonal antibody 12G6 (antibody, V domains shown)
VH: EVHLQQSGPELVKPGASVKMSCEASGYTFTDYYVAWVKQSPGESFEWIGRVNPYSGGTSYNQKFKGKATLIVDKSSSTAYMELSSLTSEDSAVYYCARWDYGVYEGYIDYWGQGSALTV
VL: DIQMTQSPASLSVSVGETVTITCRASEKIYSNLAWYQQKEGKSPQLLVYAAIRLADGVPSRFSGSGSGTQFSLKINSLQSEDFGTYYCQHFWGTPLTFGAGTKLELK
200: HI titer (dilution fold) [3]
< 100: HI titer (dilution fold) [4] | HI titer (dilution fold) [5] | HI titer (dilution fold) [6] | HI titer (dilution fold) [9] | HI titer (dilution fold) [10] | HI titer (dilution fold) [11] | HI titer (dilution fold) [12] | HI titer (dilution fold) [13] | HI titer (dilution fold) [15] | HI titer (dilution fold) [18] | HI titer (dilution fold) [19] | HI titer (dilution fold) [20]
800 titer: Neutralization titer [19]
6400: HI titer (dilution fold) [7]
12800: HI titer (dilution fold) [14]
> 25600 titer: Neutralization titer [1] | Neutralization titer [2] | Neutralization titer [8] | Neutralization titer [14] | Neutralization titer [16]
3200 titer: Neutralization titer [3] | Neutralization titer [5] | Neutralization titer [6] | Neutralization titer [9] | Neutralization titer [18]
1600 titer: Neutralization titer [10] | Neutralization titer [11] | Neutralization titer [12] | Neutralization titer [15] | Neutralization titer [20]
400: HI titer (dilution fold) [21]
1600: HI titer (dilution fold) [16]
3200: HI titer (dilution fold) [1] | HI titer (dilution fold) [2] | HI titer (dilution fold) [8] | HI titer (dilution fold) [17]
12800 titer: Neutralization titer [17]
6400 titer: Neutralization titer [7] | Neutralization titer [13] | Neutralization titer [21]
< 100 titer: Neutralization titer [4]

B2: monoclonal antibody 7G6 (antibody, V domains shown)
VH: EVQLQQSGPELVKPGASVKISCKASGYTFTDYNMHWVKQSLGKSLEWIGYIYPNNGGTGYNQKFESKATLTVDNSSSTAYMELRTLTSEDSAVYYCVRSGAYYFNYLVPYFDYWGQGTTLTVSS
VL: NIVLTQSPASLAVSLGQRATISCRASESVDIYGNSFMHWYQQKPGQPPKLLIYLASKLECGVCARFNGSGCRTDFTLAIDPVEGDDGATYYCQQNYEDPWTFGGGTKLEIK
6400: HI titer (dilution fold) [5] | HI titer (dilution fold) [11] | HI titer (dilution fold) [17] | HI titer (dilution fold) [18]
3200: HI titer (dilution fold) [2] | HI titer (dilution fold) [8] | HI titer (dilution fold) [9] | HI titer (dilution fold) [21]
> 25600: HI titer (dilution fold) [1] | HI titer (dilution fold) [10] | HI titer (dilution fold) [14] | HI titer (dilution fold) [15] | HI titer (dilution fold) [19]
3200 titer: Neutralization titer [9]
> 25600 titer: Neutralization titer [1] | Neutralization titer [8] | Neutralization titer [10] | Neutralization titer [14] | Neutralization titer [15] | Neutralization titer [17] | Neutralization titer [19] | Neutralization titer [21]
< 100 titer: Neutralization titer [3] | Neutralization titer [4] | Neutralization titer [16]
< 100: HI titer (dilution fold) [3] | HI titer (dilution fold) [4] | HI titer (dilution fold) [16]
1600: HI titer (dilution fold) [7]
1600 titer: Neutralization titer [7]
12800 titer: Neutralization titer [2] | Neutralization titer [6] | Neutralization titer [12] | Neutralization titer [13] | Neutralization titer [20]
800 titer: Neutralization titer [18]
12800: HI titer (dilution fold) [6] | HI titer (dilution fold) [12] | HI titer (dilution fold) [13] | HI titer (dilution fold) [20]
6400 titer: Neutralization titer [5] | Neutralization titer [11]

B3: monoclonal antibody 11B10 (antibody, V domains shown)
VH: EVQLQQSGPELVKPGASVKISCKASGYTFTGYNMHWVKQSHGKSLEWIGKIYPNNGVTGYNQEFRSKATLTVDNSSSTAYMELRSLTSEDSAIYFCVRSGAYYVNYLVPYFDYWGQGTTLTVSS
VL: NIVLTQSPASLAVSPGQRATISCRASESIDIYGNSFMHWYQKKPGQPPKLLIYRASNLESGVPARFNGSGSRTDFTLTIDPVEGDDGATYYCQQNYEDPWTFGGGTKLEIK
800: HI titer (dilution fold) [1] | HI titer (dilution fold) [10] | HI titer (dilution fold) [15] | HI titer (dilution fold) [19] | HI titer (dilution fold) [20]
400: HI titer (dilution fold) [9] | HI titer (dilution fold) [11] | HI titer (dilution fold) [12] | HI titer (dilution fold) [14]
6400: HI titer (dilution fold) [6]
< 100 titer: Neutralization titer [3] | Neutralization titer [4] | Neutralization titer [7] | Neutralization titer [16] | Neutralization titer [18]
6400 titer: Neutralization titer [6] | Neutralization titer [14]
400 titer: Neutralization titer [9] | Neutralization titer [11] | Neutralization titer [12]
3200 titer: Neutralization titer [2] | Neutralization titer [5] | Neutralization titer [13]
800 titer: Neutralization titer [8] | Neutralization titer [10] | Neutralization titer [15] | Neutralization titer [19] | Neutralization titer [20] | Neutralization titer [21]
> 25600 titer: Neutralization titer [1] | Neutralization titer [17]
3200: HI titer (dilution fold) [5] | HI titer (dilution fold) [13] | HI titer (dilution fold) [17]
< 100: HI titer (dilution fold) [2] | HI titer (dilution fold) [3] | HI titer (dilution fold) [4] | HI titer (dilution fold) [7] | HI titer (dilution fold) [8] | HI titer (dilution fold) [16] | HI titer (dilution fold) [18] | HI titer (dilution fold) [21]
